# Data as given in patent US20030049732.
# T1: Nod1
# T1 chain: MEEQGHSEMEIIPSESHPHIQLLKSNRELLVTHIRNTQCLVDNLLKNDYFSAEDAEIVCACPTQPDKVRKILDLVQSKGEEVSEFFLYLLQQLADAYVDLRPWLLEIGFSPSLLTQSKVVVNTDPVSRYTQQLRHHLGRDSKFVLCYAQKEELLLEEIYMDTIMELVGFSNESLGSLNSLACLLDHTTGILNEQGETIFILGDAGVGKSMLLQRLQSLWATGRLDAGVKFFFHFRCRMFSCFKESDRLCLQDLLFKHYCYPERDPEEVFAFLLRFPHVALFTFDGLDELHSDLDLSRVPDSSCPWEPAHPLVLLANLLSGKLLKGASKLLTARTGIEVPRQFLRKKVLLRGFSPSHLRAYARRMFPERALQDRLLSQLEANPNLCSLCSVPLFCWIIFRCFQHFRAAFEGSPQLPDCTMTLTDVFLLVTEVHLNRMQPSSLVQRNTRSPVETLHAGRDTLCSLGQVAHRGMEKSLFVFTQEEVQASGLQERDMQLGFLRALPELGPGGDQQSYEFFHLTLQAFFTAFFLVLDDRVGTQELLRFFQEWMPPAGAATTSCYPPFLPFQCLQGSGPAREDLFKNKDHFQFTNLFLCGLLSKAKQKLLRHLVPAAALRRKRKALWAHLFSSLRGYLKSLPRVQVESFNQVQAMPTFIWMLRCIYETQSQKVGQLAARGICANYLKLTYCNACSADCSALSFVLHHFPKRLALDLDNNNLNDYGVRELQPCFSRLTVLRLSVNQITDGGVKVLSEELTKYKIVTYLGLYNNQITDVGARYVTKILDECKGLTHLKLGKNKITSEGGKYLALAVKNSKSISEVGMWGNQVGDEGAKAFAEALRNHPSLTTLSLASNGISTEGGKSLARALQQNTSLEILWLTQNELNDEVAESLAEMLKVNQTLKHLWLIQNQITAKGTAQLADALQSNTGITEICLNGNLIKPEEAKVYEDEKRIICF
# B1: Caspase-8 (protein)
# chain: MDFSRNLYDIGEQLDSEDLASLKFLSLDYIPQRKQEPIKDALMLFQRLQEKRMLEESNLSFLKELLFRINRLDLLITYLNTRKEEMERELQTPGRAQISAYRVMLYQISEEVSRSELRSFKFLLQEEISKCKLDDDMNLLDIFIEMEKRVILGEGKLDILKRVCAQINKSLLKIINDYEEFSKERSSSLEGSPDEFSNGEELCGVMTISDSPREQDSESQTLDKVYQMKSKPRGYCLIINNHNFAKAREKVPKLHSIRDRNGTHLDAGALTTTFEELHFEIKPHDDCTVEQIYEILKIYQLMDHSNMDCFICCILSHGDKGIIYGTDGQEAPIYELTSQFTGLKCPSLAGKPKVFFIQACQGDNYQKGIPVETDSEEQPYLEMDLSSPQTRYIPDEADFLLGMATVNNCVSYRNPAEGTWYIQSLCQSLRERCPRGDDILTILTEVNYEVSNKDDKKNMGKQMPQPTFTLRKKLVFPSD
# B2: Caspase-9 (protein)
# chain: MDEADRRLLRRCRLRLVEELQVDQLWDALLSRELFRPHMIEDIQRAGSGSRRDQARQLIIDLETRGSQALPLFISCLEDTGQDMLASFLRTNRQAAKLSKPTLENLTPVVLRPEIRKPEVLRPETPRPVDIGSGGFGDVGALESLRGNADLAYILSMEPCGHCLIINNVNFCRESGLRTRTGSNIDCEKLRRRFSSLHFMVEVKGDLTAKKMVLALLELAQQDHGALDCCVVVILSHGCQASHLQFPGAVYGTDGCPVSVEKIVNIFNGTSCPSLGGKPKLFFIQACGGEQKDHGFEVASTSPEDESPGSNPEPDATPFQEGLRTFDQLDAISSLPTPSDIFVSYSTFPGFVSWRDPKSGSWYVETLDDIFEQWAHSEDLQSLLLRVANAVSVKGIYKQMPGCFNFLRKKLFFKTS
# Biological target: T1, Nod1
Protein,"proteolytic processing of procaspase-8 (SDS-PAGE, anti-HA immunoblot of 293T lysates)","proteolytic processing of procaspase-9 (SDS-PAGE, anti-Flag immunoblot of 293T lysates)"
B1,"Expression of Nod1 includes the proteolytic activation of procaspase-9, but not that of procaspase-8",
B2,,"Expression of Nod1 includes the proteolytic activation of procaspase-9, but not that of procaspase-8"
